The values below come from publication PMC7052086, “Functional characterization of NADPH-cytochrome P450 reductase and cinnamic acid 4-hydroxylase encoding genes from Scoparia dulcis L” (Botanical Studies, 2020).

Broadly, the Km is the substrate concentration at which the rate is half of its maximum. As a reminder, the Vmax is the top rate of the reaction or transport when substrate is in excess. A word on the kcat: it is the maximal rate divided by the concentration of active sites. The term kcat/Km denotes the turnover number divided by the Michaelis constant.

The test system of this data set is NC(=O)C1=CN([C@@H]2O[C@H](COP(=O)(O)OP(=O)(O)OC[C@H]3O[C@@H](n4cnc5c(N)ncnc54)[C@H](OP(=O)(O)O)[C@@H]3O)[C@@H](O)[C@H]2O)C=CC1. As to the kind of experiment: purified protein. It counts as biochemical, Scoparia dulcis. The settings on record: 100 μM cytochrome c, varied NADPH; 28 °C, pH 7.5 in table footnote (methods: 25 °C, 50 mM Tris pH 7.4).

Sequence of SdCPR (Scoparia dulcis) (chain, as listed by the source): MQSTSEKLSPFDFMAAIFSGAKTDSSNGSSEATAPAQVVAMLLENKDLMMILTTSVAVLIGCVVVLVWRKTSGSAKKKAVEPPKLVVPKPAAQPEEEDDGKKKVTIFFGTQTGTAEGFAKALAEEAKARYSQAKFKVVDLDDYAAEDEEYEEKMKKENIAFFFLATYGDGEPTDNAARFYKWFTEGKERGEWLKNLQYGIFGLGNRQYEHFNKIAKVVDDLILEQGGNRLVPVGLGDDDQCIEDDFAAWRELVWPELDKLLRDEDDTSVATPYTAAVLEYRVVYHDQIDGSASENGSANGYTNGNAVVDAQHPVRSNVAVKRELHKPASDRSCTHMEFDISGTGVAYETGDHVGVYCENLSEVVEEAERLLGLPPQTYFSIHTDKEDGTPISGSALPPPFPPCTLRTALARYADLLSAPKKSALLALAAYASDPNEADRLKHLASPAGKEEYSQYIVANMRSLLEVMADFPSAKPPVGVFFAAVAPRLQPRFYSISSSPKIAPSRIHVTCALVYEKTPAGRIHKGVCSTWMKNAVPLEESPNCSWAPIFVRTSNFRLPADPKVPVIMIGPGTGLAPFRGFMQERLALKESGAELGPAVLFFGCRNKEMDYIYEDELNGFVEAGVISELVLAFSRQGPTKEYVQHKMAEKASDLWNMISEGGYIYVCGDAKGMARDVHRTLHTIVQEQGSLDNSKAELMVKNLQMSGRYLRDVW

On to SdCPR (Scoparia dulcis), for which the Km came out at 4.6 ± 0.9 µM, the Vmax turned out to be 2.3 µmol/min/mg, the kcat was determined as 2.96 ± 0.13 s⁻¹ and the kcat/Km came out at 665000 M⁻¹ s⁻¹.
